The supplement of paper PMC7125110
± gives the standard error. For some of these results: Fewer inactive variants are shown than the library holds.

B1: glmS ribozyme (parent)
chain: AUAAAAGCGCCAGAACUACAGAAAUGUAGUUGACGAGGAGGAGGUUUAUCGAAUUUUCGGCGGAUGCCUCCAAA

Tests used:
Conditions in all cases: with glucosamine-6-phosphate
glucosamine-6-phosphate [1] = variants of: B1; experiment: kcat; higher = faster cleavage; RNA array
How it was run: (§1)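 kobs was derived by fitting per-tile medians to one- or two-exponential decays after normalising signals to baseline and to non-cleaving reference variants. Those signals came from barcoded ribozyme variants transcribed in situ by E. coli RNA polymerase on sequenced MiSeq chips, followed through a hybridised Cy3 probe at 37 °C and imaged over ~14 h. Glucosamine-6-phosphate (40 μM to 10 mM) in HEPES/KCl/Mg(OAc)2 buffer was flowed in. Weighted Michaelis–Menten fits across concentrations then gave kcat and KM.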

glucosamine-6-phosphate [2] = variants of: B1; experiment: KM; higher = weaker cofactor use; RNA array
How it was run: as §1

glucosamine-6-phosphate [3] = variants of: B1; experiment: self-cleavage kobs at 40 uM GlcN6P; higher = faster cleavage; RNA array
How it was run: as §1

glucosamine-6-phosphate [4] = variants of: B1; experiment: self-cleavage kobs at 640 uM GlcN6P; higher = faster cleavage; RNA array
How it was run: as §1

glucosamine-6-phosphate [5] = variants of: B1; experiment: self-cleavage kobs at 2500 uM GlcN6P; higher = faster cleavage; RNA array
How it was run: as §1

glucosamine-6-phosphate [6] = variants of: B1; experiment: self-cleavage kobs at 10000 uM GlcN6P; higher = faster cleavage; RNA array
How it was run: as §1

glucosamine-6-phosphate [7] = variants of: B1; experiment: self-cleavage kobs at 160 uM GlcN6P; higher = faster cleavage; RNA array
How it was run: as §1

| Variant | kcat (glucosamine-6-phosphate [1]) [s⁻¹] | KM (glucosamine-6-phosphate [2]) [µM] | self-cleavage kobs at 40 uM GlcN6P (glucosamine-6-phosphate [3]) [s⁻¹] | self-cleavage kobs at 640 uM GlcN6P (glucosamine-6-phosphate [4]) [s⁻¹] | self-cleavage kobs at 2500 uM GlcN6P (glucosamine-6-phosphate [5]) [s⁻¹] | self-cleavage kobs at 10000 uM GlcN6P (glucosamine-6-phosphate [6]) [s⁻¹] | self-cleavage kobs at 160 uM GlcN6P (glucosamine-6-phosphate [7]) [s⁻¹] |
| --- | --- | --- | --- | --- | --- | --- | --- |
| A42G G43A | 0.000155 ± 2.1e-05 | 1440 ± 500 | < 1e-05 | 5.32e-05 ± 1.5e-05 | 8.7e-05 ± 2.3e-05 | 0.000143 ± 2.8e-05 | – |
| C16U G29U | 0.00871 ± 0.0037 | – | 0.000315 ± 2.9e-05 | 0.00245 ± 0.00028 | 0.00415 ± 0.00061 | 0.0111 ± 0.0014 | 0.000639 ± 8.5e-05 |
| A42G U54G | 0.0467 ± 0.012 | 2110 ± 650 | 0.00111 ± 0.00022 | 0.0108 ± 0.0031 | 0.0229 ± 0.0093 | 0.0409 ± 0.011 | 0.00287 ± 0.00056 |
| G41U U65A | 0.000223 ± 4.3e-05 | 1090 ± 470 | – | 8.03e-05 ± 8.5e-06 | 0.000238 ± 3.1e-05 | 0.000183 ± 2e-05 | – |
| A53U U54C | 0.00788 ± 0.0015 | 619 ± 200 | 0.000577 ± 7.7e-05 | 0.00401 ± 0.00061 | 0.00897 ± 0.0018 | 0.00704 ± 0.001 | 0.0012 ± 0.00025 |
| G63U C67A | < 1e-05 | – | – | – | – | < 1e-05 | < 1e-05 |
| U49G U56A | 0.000478 ± 0.00021 | – | – | 0.000105 ± 1.9e-05 | 0.000173 ± 4.1e-05 | 0.000466 ± 9.5e-05 | – |
| A14U A52U | 0.000167 ± 2.7e-06 | 2930 ± 110 | – | 3.02e-05 ± 7.3e-06 | 7.62e-05 ± 7.8e-06 | 0.000129 ± 1e-05 | – |
| A53U G66C | 0.000389 ± 9.5e-05 | 1980 ± 890 | – | 0.000103 ± 2.5e-05 | 0.000187 ± 4.6e-05 | 0.000387 ± 0.00011 | – |
| G44C | 0.0002 ± 2.4e-05 | 1980 ± 570 | – | 4.33e-05 ± 1.8e-06 | 0.000127 ± 2.9e-06 | 0.000159 ± 3.5e-06 | – |
| G44A | 0.00053 ± 6.3e-05 | 1820 ± 420 | – | 0.000135 ± 3e-06 | 0.000389 ± 1e-05 | 0.000426 ± 8.1e-06 | 3.7e-05 ± 2.4e-06 |
| G40U A53C | 0.00186 ± 0.00029 | 2780 ± 760 | 4.37e-05 ± 1.2e-05 | 0.000309 ± 4.6e-05 | 0.00086 ± 0.0001 | 0.00149 ± 0.00016 | 0.00012 ± 3.1e-05 |
| G32A C34U | < 1e-05 | – | – | < 1e-05 | – | – | – |
| A64U | 0.00017 ± 6.8e-06 | 1860 ± 190 | – | 4.12e-05 ± 1.3e-06 | 0.000102 ± 1.9e-06 | 0.000141 ± 2.2e-06 | 1.18e-05 ± 2.4e-06 |
| C11A G29A | 3.97e-05 ± 1.6e-06 | 2550 ± 350 | – | – | – | 3.17e-05 ± 9.4e-06 | – |
| A14U G59A | 6.06e-05 ± 3.3e-06 | 9990 ± 1000 | < 1e-05 | – | – | 3.03e-05 ± 1.1e-05 | < 1e-05 |

| Variant | kcat (glucosamine-6-phosphate [1]) [s⁻¹] | KM (glucosamine-6-phosphate [2]) [µM] | self-cleavage kobs at 40 uM GlcN6P (glucosamine-6-phosphate [3]) [s⁻¹] | self-cleavage kobs at 640 uM GlcN6P (glucosamine-6-phosphate [4]) [s⁻¹] | self-cleavage kobs at 2500 uM GlcN6P (glucosamine-6-phosphate [5]) [s⁻¹] | self-cleavage kobs at 10000 uM GlcN6P (glucosamine-6-phosphate [6]) [s⁻¹] | self-cleavage kobs at 160 uM GlcN6P (glucosamine-6-phosphate [7]) [s⁻¹] |
| --- | --- | --- | --- | --- | --- | --- | --- |
| G29U G40U | 0.000422 ± 3.9e-05 | 1290 ± 220 | – | 0.00014 ± 1.5e-05 | 0.00032 ± 4.6e-05 | 0.000349 ± 4.9e-05 | 4.21e-05 ± 1.1e-05 |
| A12C G66C C70A | 8.64e-05 ± 2.7e-05 | – | – | 3.9e-05 ± 1.8e-05 | 0.00011 ± 3.2e-05 | 8.13e-05 ± 1.6e-05 | 0.000157 ± 5.7e-05 |
| A6C U31G | 2.39e-05 ± 9.7e-07 | 3730 ± 510 | – | – | – | 1.74e-05 ± 5.6e-06 | – |
| C50A C71A | 1.53e-05 ± 3.9e-06 | – | – | – | – | – | – |
| A39U C68G | 0.000151 ± 1.6e-05 | 998 ± 310 | – | 5.37e-05 ± 7.8e-06 | 0.000126 ± 1.2e-05 | 0.000127 ± 1.3e-05 | – |
| G35C C50G | 0.000276 ± 6.8e-05 | – | 3.26e-05 ± 1.4e-05 | 4.8e-05 ± 1.6e-05 | 0.000107 ± 1.2e-05 | 0.000205 ± 1.5e-05 | 7.69e-05 ± 3.7e-05 |
| A33G G60C | < 1e-05 | – | – | < 1e-05 | – | – | < 1e-05 |
| U30A C70G | 8.36e-05 ± 9.7e-06 | – | – | 6.45e-05 ± 1.5e-05 | 0.000108 ± 2.6e-05 | 8.03e-05 ± 1.3e-05 | 6.81e-05 ± 1.8e-05 |
| C16G A53C | 0.000746 ± 0.0001 | 1750 ± 490 | – | 0.000233 ± 6.3e-05 | 0.000524 ± 0.00012 | 0.000599 ± 0.0001 | 4.82e-05 ± 2.3e-05 |
| A15U G44U U47G C67G | 0.000544 ± 0.00017 | – | – | 0.000193 ± 3.9e-05 | 0.000563 ± 9.9e-05 | 0.000418 ± 9.9e-05 | – |
| A15G C16G C71G | 0.000103 ± 1.4e-05 | – | – | – | 0.000115 ± 4e-05 | 9.34e-05 ± 2.6e-05 | – |
| G13A U55C | 0.000582 ± 0.00014 | 2910 ± 1300 | – | 0.000123 ± 1.6e-05 | 0.000191 ± 3.5e-05 | 0.000492 ± 4.8e-05 | 3.73e-05 ± 1.6e-05 |
| A33C | 0.000505 ± 2.5e-05 | 2800 ± 240 | 1.4e-05 ± 2.6e-06 | 9.27e-05 ± 1.9e-06 | 0.000541 ± 0.00018 | 0.000395 ± 6.8e-06 | 2.95e-05 ± 1.7e-06 |
| A12U C16A A33U A36C G38A G62A U69A C71U | 2.12e-05 ± 1.1e-06 | – | – | – | – | – | – |
| A15C G32A U55A | 0.00195 ± 0.00087 | – | – | 0.000233 ± 5.6e-05 | 0.000416 ± 0.00012 | 0.00137 ± 0.00022 | 7.61e-05 ± 2.3e-05 |
